Reference: patent US20230012273A1 (Boehringer Ingelheim, published 2023)
Where two headings read alike, the source gives them in different places.

Assays:
[1] = target: ED-tagged human SIRPα V1 receptor on Jurkat signaling reporter cells (human, UniProt P78324 31-504); experiment: cell-based or functional assay
[2] = target: ED-tagged human SIRPα V2 receptor on Jurkat signaling reporter cells (human, UniProt P78324 31-504); experiment: cell-based or functional assay
[3] = target: T1, full-length human SIRPγ (NP_061026.2) on cells (human, UniProt Q9P1W8 29-387); experiment: flow cytometry, primary CD3+ T cells
T1 construct: also called CHO-hSIRPγ; γ WT
Protocol: (§1) Antibody binding to primary human T cells expressing endogenous SIRPγ is evaluated by flow cytometry. Human peripheral blood mononuclear cells (PBMCs) are blocked with donkey IgG and incubated on ice with increasing concentrations of antibody for 60 minutes, washed and stained with AF647-conjugated donkey F(ab′)₂ anti-human IgG secondary reagent. […] Cells are washed, fixed, and analyzed by flow cytometry. Median fluorescent intensity of CD3+ gated population is determined and used as a measure of antibody binding.
T1 sequence (Q9P1W8 29-387): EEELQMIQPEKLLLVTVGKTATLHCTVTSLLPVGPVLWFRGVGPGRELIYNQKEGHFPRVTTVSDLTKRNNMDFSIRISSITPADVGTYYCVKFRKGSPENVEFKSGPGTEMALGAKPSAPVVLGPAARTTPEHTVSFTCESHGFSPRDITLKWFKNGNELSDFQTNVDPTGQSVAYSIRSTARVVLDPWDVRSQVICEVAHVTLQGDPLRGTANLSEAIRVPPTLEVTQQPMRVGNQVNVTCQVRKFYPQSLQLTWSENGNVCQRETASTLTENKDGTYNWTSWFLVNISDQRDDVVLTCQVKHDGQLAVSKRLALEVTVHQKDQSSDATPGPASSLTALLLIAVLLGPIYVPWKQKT

[4] = target: T2, full-length human SIRPβ1 (NP_006056.2) on cells (human, UniProt O00241 30-398); experiment: flow cytometry, U937 SIRPα-KO transfectants
T2 construct: also called β1 WT
Protocol: (§2) Antibody binding to cells expressing full-length human SIRPβ1 (NP_006056.2) and SIRPβL (NP_001129316.1) is evaluated by flow cytometry. SIRPβ1- or SIRPβL-expressing U937^{SIRPα KO} cells are blocked with donkey IgG and incubated on ice with increasing concentrations of antibodies for 60 minutes, washed and stained with AF647-conjugated donkey F(ab′)₂ anti-human IgG secondary reagent. Cells are washed, fixed, and analyzed by flow cytometry. Median fluorescent intensity is determined and used as a measure of antibody binding.

[5] = target: T3, full-length human SIRPβL (NP_001129316.1) on cells (human, UniProt Q5TFQ8 30-398); experiment: flow cytometry, U937 SIRPα-KO cells expressing full-length human SIRPβL
T3 construct: one molecule for U937 SIRPα-KO transfectants (NP_001129316.1) and Expi-CHO transfectants (Q5TFQ8); also called SIRPβ1v3; βL WT
Protocol: as §2

[6] = target: full-length human SIRPβ1 D→H on Expi-CHO cells (human, UniProt O00241 30-398); experiment: flow cytometry, Expi-CHO cells
Protocol: These cells are blocked with donkey IgG and incubated on ice with increasing concentrations of antibodies for 60 minutes, washed and stained with AF647-conjugated donkey F(ab′)₂ anti-human IgG antibodies. Stained cells are washed, fixed, and analyzed by flow cytometry. Median fluorescent intensity is determined and used as a measure of antibody binding.

[7] = target: T4, human SIRPαV1 extracellular domain + His-tag (NP_542970.1) (human, UniProt P78324 31-373); experiment: SPR, Ab captured, ECD-His analyte
T4 construct: also called hSIRPαV1; HuSIRPαV1
How it was run: (§3)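 In HBS-EP+ (1×), captured antibodies are exposed to a twofold concentration series of SIRP extracellular domain carrying a His tag, using 300 s contact at 30 μl/min and a 600 s dissociation window.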

[8] = target: T5, human SIRPαV2 extracellular domain + His-tag (CAA71403.1) (human, UniProt P78324 31-373); experiment: SPR, Ab captured, ECD-His analyte
T5 construct: also called hSIRPαV2; HuSIRPαV2
How it was run: as §3

[9] = target: T6, human SIRPβ1 extracellular domain + His-tag (NP_006056.2) (human, UniProt O00241 30-371); experiment: SPR, Ab captured, ECD-His analyte
T6 construct: also called hSIRPβ1; HuSIRPβ1
How it was run: as §3

[10] = target: T7, human SIRPβL/SIRPβ1v3 extracellular domain + His-tag (NP_001129316.1) (human, UniProt Q5TFQ8 30-371); experiment: SPR, Ab captured, ECD-His analyte
T7 construct: also called hSIRPβ1v3; HuSIRPβ1v3
How it was run: as §3

[11] = target: T8, human SIRPγ extracellular domain + His-tag (NP_061026.2) (human, UniProt Q9P1W8 29-360); experiment: SPR, Ab captured, ECD-His analyte
T8 construct: also called hSIRPγ; HuSIRPγ
How it was run: as §3

[12] = target: T9, mouse SIRPα extracellular domain + His-tag (NP_031573) (mouse, UniProt P97797 32-373); experiment: SPR, Ab captured, ECD-His analyte
T9 chain: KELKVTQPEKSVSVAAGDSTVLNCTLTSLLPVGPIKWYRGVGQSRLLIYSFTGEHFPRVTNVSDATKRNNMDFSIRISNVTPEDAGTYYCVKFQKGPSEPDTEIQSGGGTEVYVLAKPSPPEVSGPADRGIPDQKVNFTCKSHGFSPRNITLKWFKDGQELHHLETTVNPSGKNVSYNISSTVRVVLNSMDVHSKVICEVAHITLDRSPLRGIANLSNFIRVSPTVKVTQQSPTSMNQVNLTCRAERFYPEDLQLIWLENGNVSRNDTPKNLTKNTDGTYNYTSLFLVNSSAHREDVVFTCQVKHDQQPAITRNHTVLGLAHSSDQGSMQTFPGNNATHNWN
Protocol: The binding affinity of anti-SIRPα antibodies to the various SIRPα analytes is determined by surface plasmon resonance (SPR) using a ProteOn XPR36 (Bio-Rad). The running buffer for this experiment and all dilutions (except where stated) are done in 1×HBS-EP+. […] The sensorchip is deactivated with 1M ethanolamine HCl for 420 sec at a flowrate of 10 μl/min.
The analyte is injected over the captured antibody for 300 sec at a flowrate of 30 μl/min. The dissociation is done for 600 sec. Two-fold serial dilutions of each SIRP protein (Extracellular Domain+His-Tag) are injected as analyte with the highest concentrations indicated in table 36 below.

[13] = target: T4, human SIRPαV1 extracellular domain + …; experiment: SPR, Ab captured, ECD-His analyte; remark: listed apart in the source
How it was run: as §3

[14] = target: T5, human SIRPαV2 extracellular domain + …; experiment: SPR, Ab captured, ECD-His analyte; remark: listed apart in the source
How it was run: as §3

[15] = target: T6, human SIRPβ1 extracellular domain + …; experiment: SPR, Ab captured, ECD-His analyte; remark: listed apart in the source
How it was run: as §3

[16] = target: T7, human SIRPβL/SIRPβ1v3 extracellular …; experiment: SPR, Ab captured, ECD-His analyte; remark: listed apart in the source
How it was run: as §3

[17] = target: T10, full-length human SIRPγ (NP_061026.2) on cells (human, UniProt Q9P1W8 29-387); experiment: flow cytometry, primary human CD3+ T cells
T10 construct: on CHO and Expi-CHO cells; endogenous on primary human CD3+ T cells; also called γ WT
Protocol: as §1
T10 sequence (Q9P1W8 29-387): as the sequence (Q9P1W8 29-387) above

[18] = target: T11, full-length human SIRPαV1 (NP_542970.1) on cells (human, UniProt P78324 31-504); experiment: flow cytometry, CD14+ monocytes V1V1
T11 construct: one molecule for CHO-K1 and Expi-CHO transfectants (NP_542970.1) and for endogenous V1 on U-937 cells and on CD14+ monocytes of V1/V1 donors; also called CHO-hSIRPαV1; αV1 WT
Protocol: as §1, with “human” for “human T”, “expressing SIRPα” for “expressing endogenous SIRPγ”, “(PBMCs) from donors genotyped as homozygous for the SIRPα V1 allele, V2 allele, or heterozygous for both alleles” for “(PBMCs)”, “of the CD14+” for “of CD3+ gated”, “population was” for “population is”

[19] = target: T12, full-length human SIRPαV2 (CAA71403.1) on cells (human, UniProt P78324 31-504); experiment: flow cytometry, CD14+ monocytes V2V2
T12 construct: one molecule for CHO-K1 and Expi-CHO transfectants (CAA71403.1) and for endogenous V2 on THP-1 cells and on CD14+ monocytes of V2/V2 donors; also called CHO-hSIRPαV2; αV2 WT
Protocol: as §1, with “human” for “human T”, “expressing SIRPα” for “expressing endogenous SIRPγ”, “(PBMCs) from donors genotyped as homozygous for the SIRPα V1 allele, V2 allele, or heterozygous for both alleles” for “(PBMCs)”, “of the CD14+” for “of CD3+ gated”, “population was” for “population is”

[20] = target: T3, full-length human SIRPβL …; experiment: flow cytometry, U937 SIRPα-KO transfectants
Protocol: as §2

[21] = target: T11, full-length human SIRPαV1 (NP_542970.1) …; experiment: flow cytometry, competition with CD47 tetramer, monocytes V1V1
Protocol: (§4) Cells are washed, fixed, and analyzed by flow cytometry. Median fluorescent intensity of CD14+gated population is determined and used as a measure of CD47 binding.

[22] = target: T12, full-length human SIRPαV2 (CAA71403.1) …; experiment: flow cytometry, competition with CD47 tetramer, monocytes V2V2
Protocol: as §4

T4 sequence (P78324 other isoform, or with tags, fused parts or gaps): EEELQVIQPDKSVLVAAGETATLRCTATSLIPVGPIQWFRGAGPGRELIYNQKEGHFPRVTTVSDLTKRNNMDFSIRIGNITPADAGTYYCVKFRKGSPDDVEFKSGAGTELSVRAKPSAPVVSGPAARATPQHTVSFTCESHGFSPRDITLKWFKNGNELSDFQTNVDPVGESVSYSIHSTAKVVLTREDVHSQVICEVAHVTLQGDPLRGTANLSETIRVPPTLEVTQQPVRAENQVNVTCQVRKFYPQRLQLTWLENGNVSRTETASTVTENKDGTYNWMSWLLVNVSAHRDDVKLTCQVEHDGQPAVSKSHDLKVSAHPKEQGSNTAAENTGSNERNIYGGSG
T5 sequence (P78324 other isoform, or with tags, fused parts or gaps): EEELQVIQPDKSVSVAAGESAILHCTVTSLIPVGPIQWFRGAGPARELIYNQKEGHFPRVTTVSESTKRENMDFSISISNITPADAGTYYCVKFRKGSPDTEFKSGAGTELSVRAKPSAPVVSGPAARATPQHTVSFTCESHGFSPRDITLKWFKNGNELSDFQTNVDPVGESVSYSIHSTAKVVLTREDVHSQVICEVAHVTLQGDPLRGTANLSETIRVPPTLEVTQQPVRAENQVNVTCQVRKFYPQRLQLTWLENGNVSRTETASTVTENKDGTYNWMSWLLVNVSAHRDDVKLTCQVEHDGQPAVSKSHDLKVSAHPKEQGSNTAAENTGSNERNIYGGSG
T7 sequence (Q5TFQ8 other isoform, or with tags, fused parts or gaps): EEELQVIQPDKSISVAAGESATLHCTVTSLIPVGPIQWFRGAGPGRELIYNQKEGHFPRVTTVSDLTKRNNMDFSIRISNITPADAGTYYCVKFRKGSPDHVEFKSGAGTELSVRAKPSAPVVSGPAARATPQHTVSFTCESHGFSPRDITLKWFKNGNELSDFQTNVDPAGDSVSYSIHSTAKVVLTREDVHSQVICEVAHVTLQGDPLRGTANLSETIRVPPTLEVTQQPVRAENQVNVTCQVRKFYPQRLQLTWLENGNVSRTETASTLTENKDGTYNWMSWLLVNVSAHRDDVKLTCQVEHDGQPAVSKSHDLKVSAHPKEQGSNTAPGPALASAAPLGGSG
T6 sequence (O00241 other isoform, or with tags, fused parts or gaps): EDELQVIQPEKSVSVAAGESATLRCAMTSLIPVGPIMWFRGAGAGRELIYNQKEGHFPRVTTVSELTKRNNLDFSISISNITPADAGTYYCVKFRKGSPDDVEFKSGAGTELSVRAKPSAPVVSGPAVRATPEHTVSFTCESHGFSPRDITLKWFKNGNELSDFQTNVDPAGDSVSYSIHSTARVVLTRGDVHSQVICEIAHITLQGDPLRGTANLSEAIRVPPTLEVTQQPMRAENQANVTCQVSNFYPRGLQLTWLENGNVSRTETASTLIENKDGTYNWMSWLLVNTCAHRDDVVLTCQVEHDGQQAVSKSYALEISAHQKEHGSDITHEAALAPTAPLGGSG
T3 sequence (Q5TFQ8 30-398): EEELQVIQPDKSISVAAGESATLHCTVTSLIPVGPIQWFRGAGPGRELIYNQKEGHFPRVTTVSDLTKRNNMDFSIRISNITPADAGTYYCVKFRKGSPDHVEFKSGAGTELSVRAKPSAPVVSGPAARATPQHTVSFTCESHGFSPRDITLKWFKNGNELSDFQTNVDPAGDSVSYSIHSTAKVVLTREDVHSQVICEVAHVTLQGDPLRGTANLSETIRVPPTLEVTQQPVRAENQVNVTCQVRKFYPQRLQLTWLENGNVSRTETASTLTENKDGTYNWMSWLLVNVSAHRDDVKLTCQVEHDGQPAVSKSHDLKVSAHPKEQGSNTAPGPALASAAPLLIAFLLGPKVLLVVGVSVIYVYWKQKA
T2 sequence (O00241 30-398): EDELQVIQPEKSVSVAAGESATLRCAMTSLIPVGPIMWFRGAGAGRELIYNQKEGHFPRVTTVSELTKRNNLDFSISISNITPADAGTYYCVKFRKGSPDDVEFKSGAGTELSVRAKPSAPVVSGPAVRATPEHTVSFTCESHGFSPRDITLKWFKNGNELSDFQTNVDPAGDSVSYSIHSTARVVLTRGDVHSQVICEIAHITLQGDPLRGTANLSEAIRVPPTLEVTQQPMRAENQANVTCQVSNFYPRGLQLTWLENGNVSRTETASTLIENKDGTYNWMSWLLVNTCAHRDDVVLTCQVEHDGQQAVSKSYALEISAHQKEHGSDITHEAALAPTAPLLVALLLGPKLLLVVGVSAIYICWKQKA
T12 sequence (P78324 other isoform, or with tags, fused parts or gaps): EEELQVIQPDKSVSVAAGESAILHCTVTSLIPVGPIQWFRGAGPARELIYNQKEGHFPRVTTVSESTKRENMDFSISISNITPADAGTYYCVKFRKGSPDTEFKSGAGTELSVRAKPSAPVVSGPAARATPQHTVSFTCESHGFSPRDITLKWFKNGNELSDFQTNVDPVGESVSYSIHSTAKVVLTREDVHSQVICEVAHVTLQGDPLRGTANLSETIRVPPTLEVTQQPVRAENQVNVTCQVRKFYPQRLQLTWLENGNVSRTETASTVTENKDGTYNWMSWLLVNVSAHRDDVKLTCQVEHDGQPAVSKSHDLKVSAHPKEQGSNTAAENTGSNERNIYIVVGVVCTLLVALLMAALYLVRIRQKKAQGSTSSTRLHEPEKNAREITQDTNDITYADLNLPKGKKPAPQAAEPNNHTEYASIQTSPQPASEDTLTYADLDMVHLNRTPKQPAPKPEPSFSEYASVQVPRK
T11 sequence (P78324 31-504): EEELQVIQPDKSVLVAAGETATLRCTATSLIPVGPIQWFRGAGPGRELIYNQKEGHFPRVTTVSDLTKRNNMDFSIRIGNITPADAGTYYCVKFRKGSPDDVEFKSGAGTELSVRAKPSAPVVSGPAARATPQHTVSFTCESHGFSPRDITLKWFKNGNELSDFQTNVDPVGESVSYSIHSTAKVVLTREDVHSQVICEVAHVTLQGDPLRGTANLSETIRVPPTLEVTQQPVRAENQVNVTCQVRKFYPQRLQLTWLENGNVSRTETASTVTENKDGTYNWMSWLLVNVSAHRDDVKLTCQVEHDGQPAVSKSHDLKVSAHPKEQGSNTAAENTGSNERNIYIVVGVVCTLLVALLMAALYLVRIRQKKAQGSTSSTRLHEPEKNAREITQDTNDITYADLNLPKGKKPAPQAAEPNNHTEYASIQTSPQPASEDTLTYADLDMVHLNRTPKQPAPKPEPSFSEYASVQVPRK
T8 sequence (Q9P1W8 29-360): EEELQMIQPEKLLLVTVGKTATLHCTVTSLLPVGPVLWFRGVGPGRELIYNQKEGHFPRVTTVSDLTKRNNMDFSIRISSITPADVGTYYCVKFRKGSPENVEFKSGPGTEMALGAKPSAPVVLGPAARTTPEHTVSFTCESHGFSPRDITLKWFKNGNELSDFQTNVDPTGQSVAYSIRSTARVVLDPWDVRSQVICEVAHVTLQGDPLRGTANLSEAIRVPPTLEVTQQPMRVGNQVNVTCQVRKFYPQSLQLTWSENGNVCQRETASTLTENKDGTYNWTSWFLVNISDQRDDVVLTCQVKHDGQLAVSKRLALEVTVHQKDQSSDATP
full-length human SIRPβ1 D→H on Expi-CHO cells, sequence (O00241 30-398 D130H): as the sequence (O00241 30-398) above, with D101H counted along it

B1: Antibody A11 (antibody, human IgG4 S228P, kappa)
heavy: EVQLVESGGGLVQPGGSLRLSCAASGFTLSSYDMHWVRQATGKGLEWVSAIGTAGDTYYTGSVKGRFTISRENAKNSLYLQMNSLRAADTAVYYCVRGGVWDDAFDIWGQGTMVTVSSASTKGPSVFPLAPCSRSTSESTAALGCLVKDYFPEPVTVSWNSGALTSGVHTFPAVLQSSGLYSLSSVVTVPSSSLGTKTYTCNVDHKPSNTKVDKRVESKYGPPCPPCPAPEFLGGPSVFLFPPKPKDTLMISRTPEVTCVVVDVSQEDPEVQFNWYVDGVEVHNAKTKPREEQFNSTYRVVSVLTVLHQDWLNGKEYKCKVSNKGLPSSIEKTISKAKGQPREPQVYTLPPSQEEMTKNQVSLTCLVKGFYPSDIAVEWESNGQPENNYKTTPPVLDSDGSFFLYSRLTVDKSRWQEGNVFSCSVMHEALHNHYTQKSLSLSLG
light: DIQMTQSPSSLSASVGDRVTITCRASQDINNYLAWFQQKPGKAPKSLIYTASSLHSGVPSKFSGSGSGTDFTLTISSLQPEDFATYYCQQYVSYPYTFGQGTKLEIKRTVAAPSVFIFPPSDEQLKSGTASVVCLLNNFYPREAKVQWKVDNALQSGNSQESVTEQDSKDSTYSLSSTLTLSKADYEKHKVYACEVTHQGLSSPVTKSFNRGEC
Blockade of Cellular CD47-Mediated SIRPα Signaling; IC50 [1]: 0.04 nM | Blockade of Cellular CD47-Mediated SIRPα Signaling; IC50 [2]: 0.02 nM | binding result [3]: no binding | EC50 [4]: 0.3 nM | binding result [5]: no binding (tested: about 200 nM)

B2: Antibody E (antibody, human IgG1, kappa, L234A L235A)
heavy: not shown
light: DIVMTQSPLSLPVTPGEPASISCKSSQSLLYSNGYNYLDWYLQRPGQSPQLLIYLGSNRASGVPDRFSGSGSGTDFTLKISRVEAEDVGVFYCMQALQTPLTFGGGTKVEIKRTVAAPSVFIFPPSDEQLKSGTASVVCLLNNFYPREAKVQWKVDNALQSGNSQESVTEQDSKDSTYSLSSTLTLSKADYEKHKVYACEVTHQGLSSPVTKSFNRGEC
binding result [6]: no binding | Kd [7]: 0.456 nM | Kd [8]: 0.42 nM | Kd [9]: 1230 nM | Kd [10]: 1.16 nM | binding result [11]: no binding (tested: 1000 nM) | binding result [12]: no binding | Kd [13]: 0.425 nM | Kd [14]: 0.33 nM | Kd [15]: 771 nM | Kd [16]: 0.81 nM

B3: Antibody G (antibody, human IgG4 S228P, kappa)
heavy: not shown
light: DIVMTQSPLSLPVTPGEPASISCKSSQSLLYSNGYNYLDWYLQRPGQSPQLLIYLGSNRASGVPDRFSGSGSGTDFTLKISRVEAEDVGVFYCMQALQTPLTFGGGTKVEIKRTVAAPSVFIFPPSDEQLKSGTASVVCLLNNFYPREAKVQWKVDNALQSGNSQESVTEQDSKDSTYSLSSTLTLSKADYEKHKVYACEVTHQGLSSPVTKSFNRGEC
Kd [7]: 0.497 nM | Kd [8]: 0.465 nM | Kd [9]: 1270 nM | Kd [10]: 1.27 nM | binding result [11]: no binding (tested: 1000 nM) | binding result [12]: no binding | binding result [17]: no binding

B4: anti-SIRPα antibody SIRP AB11 (antibody, V domains shown)
VH: QVQLVQSGAEVKKPGASVKVSCKASGYTFRGYGISWVRQAPGQGLEWMGWISAYGGETNYAQKLQGRVTMTTDTSTSTAYMELRSLRSDDTAVYYCAREAGSSWYDFDLWGRGTLVTVSS
VL: DIQMTQSPSSVSASVGDRVTITCRASQGISSWLAWYQQKPGKAPKLLIYAASNLQSGVPSRFSGSGSGTDFTLTISSLQPEDFATYYCQQGASFPITFGGGTKVEIKR
EC50 [18]: 0.1 nM | EC50 [19]: 0.1 nM | EC50 [3]: 0.02 nM | EC50 [4]: 0.1 nM | EC50 [20]: 0.2 nM | IC50 [21]: 0.02 nM | IC50 [22]: 0.05 nM
